Key:
[1] = tested on: His6-tagged Paracoccus zeaxanthinifaciens mevalonate kinase; assay: Feedback inhibition of mevalonate kinase by downstream products of the pathway; type: biochemical; conditions: 138 μM of the inhibitor; wild-type His6-tagged enzyme
Protocol: (§1) Enzymatic assays for measuring mevalonate kinase activity have been described, e.g., by Popák (Meth. Enzymol. 15, 393-, 1969), Gibson et al. (Enzyme 41, 47-55, 1989), Hinson et al. (J. Lipid Res. 38, 2216-2223, 1997), Schulte et al. (Anal. Biochem. 269, 245-254, 1999), or Cho et al. (J. Biol. Chem. 276, 12573-12578, 2001). For preparing mevalonate as substrate, 130 mg of DL-mevalonate lactone (FLUKA Chemie AG, Buchs, Switzerland) were dissolved in 5.5 ml of 0.2 M KOH and incubated for 15 min at 50° C. The solution was then adjusted to pH 7.0 by addition of 0.1 M HCl at room temperature (RT). Except if stated otherwise (see Example 3), the assay mixture consists of 100 mM K2HPO4/KH2PO4 (pH 7.0), 1 mM ATP, 2 mM MgCl2, 1 mM mevalonate, 0.5 mM phosphoenolpyruvate (PEP), 0.32 mM NADH, 20 U/ml pyruvate kinase and 27 U/ml lactate dehydrogenase (Sigma-Aldrich, St. Louis, Mo., USA). FPP, GGPP, IPP, DMAPP and GPP tested as inhibitors in the assay mixtures (at concentrations of 0-100 μM) were all purchased from Sigma. Upon addition of purified (His6-tagged) mevalonate kinase, enzymatic reaction reflected by consumption of NADH was followed by photometric measurement at 340 nm. One unit (1 U) of mevalonate kinase activity catalyzes the phosphorylation of 1 μmol of mevalonate per min.
(§2) Mevalonate was prepared as described in Example 2. The assay mixture consists of 100 mM K2HPO4/KH2PO4 (pH 7.0), 1 mM ATP, 1 mM mevalonate, 2 mM MgCl2, 0.5 mM phosphoenolpyruvate (PEP), 0.32 mM NADH, 20 U/ml pyruvate kinase and 27 U/ml lactate dehydrogenase (Sigma-Aldrich, St. Louis, Mo., USA). FPP, GGPP, IPP, DMAPP and GPP tested as inhibitors in the assay mixtures were all purchased from Sigma. 92 μM FPP or 17.6 μM GGPP were used for inhibition assays performed with the mevalonate kinase mutants. For the comparison of inhibition by FPP, GGPP, IPP, DMAPP and GPP, 138 μM of these intermediates were added (Example 9). Upon addition of purified (HiS6-tagged) mevalonate kinase, enzymatic reaction reflected by consumption of NADH was followed by photometric measurement at 340 nm.
Different mevalonate kinases were previously reported to be sensitive to feedback inhibition by the following downstream products of the mevalonate pathway: IPP, DMAPP, GPP, FPP, GGPP, phytyl-PP, farnesol, dolichol phosphate.

[2] = tested on: Paracoccus zeaxanthinifaciens mevalonate kinase; assay: Mevalonate kinase activity assay (NADH-coupled photometric assay, specific activity of mutants); type: biochemical; conditions: purified His6-tagged enzyme, 1 mM ATP, 1 mM mevalonate, pH 7.0
Protocol: as §1, §2

[3] = tested on: Paracoccus zeaxanthinifaciens mevalonate kinase; assay: Feedback resistance of mevalonate kinase mutants to FPP or GGPP; type: biochemical; conditions: feedback inhibitor FPP, 92 μM; relative to wild-type
Protocol: “Feedback resistance” shall mean any increase in resistance to “feedback inhibition” (as defined above). Feedback resistance can be analyzed in different ways known to those skilled in the art. An appropriate approach shall be described here shortly: mevalonate kinase activity is measured in an activity assay similar to the one described in Example 2 at non-saturating concentrations of ATP (or of another phosphate donor) and mevalonate (or mevalonate analogue), i.e., at ATP (or phosphate donor) and mevalonate (or mevalonate analogue) concentrations around which the reaction rate is sensitive to changes of these substrate concentrations, e.g. at concentrations around the respective Km values of the enzyme under investigation for these substrates. The activities of both wild-type mevalonate kinase and of a variant/mutant of this enzyme are measured under otherwise identical conditions both in the absence and presence of a relevant concentration of a feedback inhibitor, i.e., at a concentration of feedback inhibitor affording significant inhibition of the wild-type mevalonate kinase. […] Feedback resistance (%) is calculated as follows: if a and b are the measured mevalonate kinase activities of the wild-type enzyme in the absence and presence, respectively, of the feedback inhibitor (e.g., FPP), and if c and d are the measured mevalonate kinase activities of the mutant enzyme in the absence and presence, respectively, of the same feedback inhibitor, then % feedback resistance is: % resistance=100·((d/c)−(b/a))/(1−(b/a)) […]
Feedback resistance (%) is calculated as follows: if a and b are the measured mevalonate kinase activities of the wild-type enzyme in the absence and presence, respectively, of the feedback inhibitor (in this case, FPP), and if c and d are the measured mevalonate kinase activities of the mutant enzyme in the absence and presence, respectively, of the same feedback inhibitor, then % feedback resistance is: % resistance=100·((d/c)−(b/a))/(1−(b/a))

[4] = pH 8

Molecule	Inhibition of mevalonate kinase activity [1]	Specific activity (% of wild-type) [2]	Feedback resistance (%) [3]	Solubility / tendency to aggregate [4]
C=C(C)CCOP(=O)(O)OP(=O)(O)O [IPP, isopentenyl diphosphate]	16.3%	–	–	–
CC(C)=CCC/C(C)=C/COP(=O)(O)OP(=O)(O)O [GPP, geranyl diphosphate]	18.6%	–	–	–
CC(C)=CCC/C(C)=C/CC/C(C)=C/CC/C(C)=C/COP(=O)(O)OP(=O)(O)O [GGPP, geranylgeranyl diphosphate]	98%	–	–	–
CC(C)=CCOP(=O)(O)OP(=O)(O)O [DMAPP, 3,3-dimethylallyl diphosphate]	14.7%	–	–	–
G47D (protein, listed as Paracoccus zeaxanthinifaciens) MSTGRPEAGAHAPGKLILSGEHSVLYGAPALAMAIARYTEVWFTPLDIGEGIRTTFANLSGGATYSLKLLSGFKSRLDRRFEQFLNGDLKVHKVLTHPDDLAVYALASLLHDKPPGTAAMPGIGAMHHLPRPGELGSRTELPIGAGMGSSAAIVAATTVLFETLLDRPKTPEQRFDRVRFCERLKHGKAGPIDAASVVRGGLVRVGGNGPGSISSFDLPEDHDLVAGRGWYWVLHGRPVSGTGECVSAVAAAHGRDAALWDAFAVCTRALEAALLSGGSPDAAITENQRLLERIGVVPAATQALVAQIEEAGGAAKICGAGSVRGDHGGAVLVRIDDAQAMASVMARHPDLDWAPLRMSRTGAAPGPAPRAQPLPGQG	–	121 % of wild-type	32%	–
K93E (protein, listed as Paracoccus zeaxanthinifaciens) MSTGRPEAGAHAPGKLILSGEHSVLYGAPALAMAIARYTEVWFTPLGIGEGIRTTFANLSGGATYSLKLLSGFKSRLDRRFEQFLNGDLKVHEVLTHPDDLAVYALASLLHDKPPGTAAMPGIGAMHHLPRPGELGSRTELPIGAGMGSSAAIVAATTVLFETLLDRPKTPEQRFDRVRFCERLKHGKAGPIDAASVVRGGLVRVGGNGPGSISSFDLPEDHDLVAGRGWYWVLHGRPVSGTGECVSAVAAAHGRDAALWDAFAVCTRALEAALLSGGSPDAAITENQRLLERIGVVPAATQALVAQIEEAGGAAKICGAGSVRGDHGGAVLVRIDDAQAMASVMARHPDLDWAPLRMSRTGAAPGPAPRAQPLPGQG	–	109 % of wild-type	33%	–
WT: wild-type His6-tagged mevalonate kinase of Paracoccus zeaxanthinifaciens, SEQ ID NO:15 (protein, His6 tag; His6-Paracoccus zeaxanthinifaciens) MRGSHHHHHHSTGRPEAGAHAPGKLILSGEHSVLYGAPALAMAIARYTEVWFTPLGIGEGIRTTFANLSGGATYSLKLLSGFKSRLDRRFEQFLNGDLKVHKVLTHPDDLAVYALASLLHDKPPGTAAMPGIGAMHHLPRPGELGSRTELPIGAGMGSSAAIVAATTVLFETLLDRPKTPEQRFDRVRFCERLKHGKAGPIDAASVVRGGLVRVGGNGPGSISSFDLPEDHDLVAGRGWYWVLHGRPVSGTGECVSAVAAAHGRDAALWDAFAVCTRALEAALLSGGSPDAAITENQRLLERIGVVPAATQALVAQIEEAGGAAKICGAGSVRGDHGGAVLVRIDDAQAMASVMARHPDLDWAPLRMSRTGAAPGPAPRAQPLPGQG	–	100 % of wild-type	0%	pronounced tendency to aggregate/precipitate

Source: patent publication US7422884B2, “Feedback-resistant mevalonate kinases” (DSM IP Assetts B.V., priority 2003, dated 2008)
